Test results: PMC6548137, “Structural basis for the nuclear import and export functions of the biportin Pdr6/Kap122” (The Journal of Cell Biology, 2019)

T1: H14-ZZ-bdSUMO-tagged Pdr6 (S. cerevisiae, UniProt P32767 2-1081)
T1 construct: Pdr6/Kap122, S. cerevisiae; also called tagged NTR; source: E. coli Top10 F', purified (Ni(II) chelate, imidazole elution); not shown: His14, N-terminal, kept; ZZ, N-terminal, kept; bdSUMO, N-terminal, kept
T1 sequence: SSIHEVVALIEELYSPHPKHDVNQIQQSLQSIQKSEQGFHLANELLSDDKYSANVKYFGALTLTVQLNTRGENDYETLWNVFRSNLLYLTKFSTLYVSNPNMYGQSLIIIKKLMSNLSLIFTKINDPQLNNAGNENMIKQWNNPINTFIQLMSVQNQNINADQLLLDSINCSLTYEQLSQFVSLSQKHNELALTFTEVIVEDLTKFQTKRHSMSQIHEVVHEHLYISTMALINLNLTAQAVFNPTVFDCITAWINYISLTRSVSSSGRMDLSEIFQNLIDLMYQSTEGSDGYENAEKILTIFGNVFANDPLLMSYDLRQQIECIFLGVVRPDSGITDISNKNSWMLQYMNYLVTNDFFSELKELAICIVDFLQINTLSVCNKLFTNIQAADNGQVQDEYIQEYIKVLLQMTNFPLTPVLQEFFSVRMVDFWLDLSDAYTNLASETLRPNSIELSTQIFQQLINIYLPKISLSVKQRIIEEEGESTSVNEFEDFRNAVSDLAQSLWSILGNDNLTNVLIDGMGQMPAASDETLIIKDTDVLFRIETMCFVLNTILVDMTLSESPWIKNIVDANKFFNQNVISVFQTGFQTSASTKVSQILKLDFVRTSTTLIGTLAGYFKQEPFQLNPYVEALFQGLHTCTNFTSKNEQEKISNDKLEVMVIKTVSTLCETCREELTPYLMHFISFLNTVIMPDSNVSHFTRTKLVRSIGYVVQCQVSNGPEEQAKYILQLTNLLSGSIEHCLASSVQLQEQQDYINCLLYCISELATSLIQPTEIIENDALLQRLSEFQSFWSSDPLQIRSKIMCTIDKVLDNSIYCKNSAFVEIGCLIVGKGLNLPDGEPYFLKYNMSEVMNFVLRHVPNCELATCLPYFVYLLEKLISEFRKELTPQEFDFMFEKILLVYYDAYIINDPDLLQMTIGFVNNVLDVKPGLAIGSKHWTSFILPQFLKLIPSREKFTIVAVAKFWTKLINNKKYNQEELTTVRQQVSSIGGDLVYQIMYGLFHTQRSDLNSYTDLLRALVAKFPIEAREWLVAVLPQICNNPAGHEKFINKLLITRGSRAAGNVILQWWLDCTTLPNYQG

B1: S. cerevisiae Ubc9, full length (enzyme, UniProt P50623 1-157, looked up)
chain: MSSLCLQRLQEERKKWRKDHPFGFYAKPVKKADGSMDLQKWEAGIPGKEGTNWAGGVYPITVEYPNEYPSKPPKVKFPAGFYHPNVYPSGTICLSILNEDQDWRPAITLKQIVLGVQDLLDSPNPNSPAQEPAWRSFSRNKAEYDKKVLLQAKQYSK
notes: Ubc9, SUMO-conjugating E2 enzyme, S. cerevisiae, full length; residues 2-157 are in the model; Full length is said for the crystallised protein; also called yeast Ubc9; source: NEB Express cells, purified (Ni(II) chelate)
B2: Pdr6/Kap122 (S. cerevisiae), full length, tag removed (natural protein)
chain: MSSIHEVVALIEELYSPHPKHDVNQIQQSLQSIQKSEQGFHLANELLSDDKYSANVKYFGALTLTVQLNTRGENDYETLWNVFRSNLLYLTKFSTLYVSNPNMYGQSLIIIKKLMSNLSLIFTKINDPQLNNAGNENMIKQWNNPINTFIQLMSVQNQNINADQLLLDSINCSLTYEQLSQFVSLSQKHNELALTFTEVIVEDLTKFQTKRHSMSQIHEVVHEHLYISTMALINLNLTAQAVFNPTVFDCITAWINYISLTRSVSSSGRMDLSEIFQNLIDLMYQSTEGSDGYENAEKILTIFGNVFANDPLLMSYDLRQQIECIFLGVVRPDSGITDISNKNSWMLQYMNYLVTNDFFSELKELAICIVDFLQINTLSVCNKLFTNIQAADNGQVQDEYIQEYIKVLLQMTNFPLTPVLQEFFSVRMVDFWLDLSDAYTNLASETLRPNSIELSTQIFQQLINIYLPKISLSVKQRIIEEEGESTSVNEFEDFRNAVSDLAQSLWSILGNDNLTNVLIDGMGQMPAASDETLIIKDTDVLFRIETMCFVLNTILVDMTLSESPWIKNIVDANKFFNQNVISVFQTGFQTSASTKVSQILKLDFVRTSTTLIGTLAGYFKQEPFQLNPYVEALFQGLHTCTNFTSKNEQEKISNDKLEVMVIKTVSTLCETCREELTPYLMHFISFLNTVIMPDSNVSHFTRTKLVRSIGYVVQCQVSNGPEEQAKYILQLTNLLSGSIEHCLASSVQLQEQQDYINCLLYCISELATSLIQPTEIIENDALLQRLSEFQSFWSSDPLQIRSKIMCTIDKVLDNSIYCKNSAFVEIGCLIVGKGLNLPDGEPYFLKYNMSEVMNFVLRHVPNCELATCLPYFVYLLEKLISEFRKELTPQEFDFMFEKILLVYYDAYIINDPDLLQMTIGFVNNVLDVKPGLAIGSKHWTSFILPQFLKLIPSREKFTIVAVAKFWTKLINNKKYNQEELTTVRQQVSSIGGDLVYQIMYGLFHTQRSDLNSYTDLLRALVAKFPIEAREWLVAVLPQICNNPAGHEKFINKLLITRGSRAAGNVILQWWLDCTTLPNYQG

Columns and labels:
Conditions in all cases: both partners purified
[1] = biological target: T1, H14-ZZ-bdSUMO-tagged Pdr6; test: pull-down; 1 µM H14-ZZ-bdSUMO-tagged NTR with 2 µM human or yeast Ubc9; retrieved via the tagged NTR by anti-Protein A beads, eluted by bdSENP1 protease, SDS-PAGE and Coomassie
[2] = biological target: B2; test: crystal structure; Pdr6•Ubc9, 18°C, 50 mM sodium cacodylate pH 5.7, 20 mM MgCl2, 3-5% ethanol
[3] = biological target: human RanQ69L (residues 5-180), GTP-bound (human, UniProt P62826 5-180, Q69L); test: crystal structure; Pdr6•RanGTP, hexagonal crystals, 18°C, 50 mM sodium acetate pH 5.5, 220 mM MgCl2, 19% pentaerythritol propoxylate, 10% 2-Methyl-2,4-pentanediol

## B1
[1]
  binding result: binds
[2]
  binding result: binds

## B2
[3]
  binding result: binds
